Data reported in patent US7026443.
Where two headings read alike, the source gives them in different places.

Tests used:
[1] = target: HLA-A*0301 (human); assay: competition with 125I-labeled standard peptide for purified HLA, gel filtration
[2] = target: HLA-A*1101 (human); assay: as above
[3] = target: HLA-A*1101 (human)
[4] = target: HLA-A*1101 (human); assay: competition with 125I-labelled standard peptide for purified HLA-A*1101, gel filtration
[5] = target: HLA-A*0301 (human)
[6] = target: HLA-A*1101 (human); remark: listed apart in the source
[7] = target: HLA-A*0201 (human); assay: competition with 125I-labelled standard peptide for purified HLA-A*0201, gel filtration

B1: HPV18 E1 position 412 peptide … (peptide)
peptide: CATMCKHYR
modifications: not checked
binding affinity ratio (IC50 of standard peptide / IC50 of test peptide) [1]: 0.0012 | binding affinity ratio (IC50 of standard peptide / IC50 of test peptide) [2]: 0.011

B2: HPV18 E1 position 460 peptide … (peptide)
peptide: FITFLGALK
modifications: not checked
binding affinity ratio (IC50 of standard peptide / IC50 of test peptide) [1]: 0.032 | binding affinity ratio (IC50 of standard peptide / IC50 of test peptide) [2]: 0.037

B3: HPV18 E1 position 223 peptide … (peptide)
peptide: GLSFTDLVR
modifications: not checked
binding affinity ratio (IC50 of standard peptide / IC50 of test peptide) [3]: 0.0025 | binding affinity ratio (IC50 of standard peptide / IC50 of test peptide) [1]: 0.0009 | binding affinity ratio (IC50 of standard peptide / IC50 of test peptide) [2]: 0.0025

B4: HPV18 E1 position 279 peptide … (peptide)
peptide: GVLILALLR
modifications: not checked
binding affinity ratio (IC50 of standard peptide / IC50 of test peptide) [1]: 0.0058 | binding affinity ratio (IC50 of standard peptide / IC50 of test peptide) [2]: 0.14 | binding affinity ratio (IC50 of standard peptide / IC50 of test peptide) [4]: 0.14

B5: HPV18 E1 position 198 peptide … (peptide)
peptide: IAQLKDLLK
modifications: not checked
binding affinity ratio (IC50 of standard peptide / IC50 of test peptide) [3]: 0.0027 | binding affinity ratio (IC50 of standard peptide / IC50 of test peptide) [1]: 0.0003 | binding affinity ratio (IC50 of standard peptide / IC50 of test peptide) [2]: 0.0027

B6: HPV18 E1 position 116 peptide … (peptide)
peptide: ISLNSGQKK
modifications: not checked
binding affinity ratio (IC50 of standard peptide / IC50 of test peptide) [1]: 0.0003 | binding affinity ratio (IC50 of standard peptide / IC50 of test peptide) [2]: 0.0026 | binding affinity ratio (IC50 of standard peptide / IC50 of test peptide) [4]: 0.0026

B7: HPV18 E1 position 229 peptide … (peptide)
peptide: LVRNFKSDK
modifications: not checked
binding affinity ratio (IC50 of standard peptide / IC50 of test peptide) [5]: 0.0005 | binding affinity ratio (IC50 of standard peptide / IC50 of test peptide) [6]: 0.0002

B8: HPV18 E1 position 312 peptide … (peptide)
peptide: MLIQPPKLR
modifications: not checked
binding affinity ratio (IC50 of standard peptide / IC50 of test peptide) [5]: 0.0005 | binding affinity ratio (IC50 of standard peptide / IC50 of test peptide) [6]: 0.0014

B9: HPV18 E1 position 428 peptide … (peptide)
peptide: NMSQWIRFR
modifications: not checked
binding affinity ratio (IC50 of standard peptide / IC50 of test peptide) [5]: 0.054 | binding affinity ratio (IC50 of standard peptide / IC50 of test peptide) [6]: 0.0012

B10: HPV18 E1 position 393 peptide … (peptide)
peptide: NSNAAAFLK
modifications: not checked
binding affinity ratio (IC50 of standard peptide / IC50 of test peptide) [5]: 0.0057 | binding affinity ratio (IC50 of standard peptide / IC50 of test peptide) [6]: 0.37

B11: HPV18 E1 position 426 peptide … (peptide)
peptide: QMNMSQWIR
modifications: not checked
binding affinity ratio (IC50 of standard peptide / IC50 of test peptide) [5]: 0.0011 | binding affinity ratio (IC50 of standard peptide / IC50 of test peptide) [6]: 0.0023

B12: HPV18 E1 position 322 peptide … (peptide)
peptide: SVAALYWYR
modifications: not checked
binding affinity ratio (IC50 of standard peptide / IC50 of test peptide) [5]: 2.9 | binding affinity ratio (IC50 of standard peptide / IC50 of test peptide) [6]: 8.8

B13: HPV31 E1 peptide … (position 372, 9 amino acids) (peptide)
peptide: FLKSNSQAK
modifications: not checked
relative binding ratio (IC50 of standard peptide / IC50 of test peptide) (ratio to standard peptide) [5]: 0.0013

B14: HPV33 E1 385 peptide … (A03 supermotif peptide, 9 amino acids) (peptide)
peptide: FLKSNSQAK
modifications: not checked
relative binding ratio (IC50 of standard peptide / IC50 of test peptide) [5]: 0.0013

B15: HPV33 E1 379 peptide … (SEQ ID NO: 10558) (peptide)
peptide: NSNAAAFLK
modifications: not checked
binding affinity ratio (IC50 of standard peptide / IC50 of test peptide) (ratio relative to standard peptide) [5]: 0.0057 | binding affinity ratio (IC50 of standard peptide / IC50 of test peptide) (ratio relative to standard peptide) [6]: 0.37

B16: HPV45 E1 peptide … (position 308, 9 amino acids) (peptide)
peptide: SVAALYWYR
modifications: not checked
relative binding ratio (IC50 of standard peptide / IC50 of test peptide) [5]: 2.9 | relative binding ratio (IC50 of standard peptide / IC50 of test peptide) [6]: 8.8

B17: HPV16 E1 … (position 239) (peptide)
peptide: AAFGLTPSI
modifications: not checked
relative binding ratio (IC50 of standard peptide / IC50 of test peptide) [7]: 0.0012

B18: HPV16 E1 … (position 353) (peptide)
peptide: CTFELSQMV
modifications: not checked
relative binding ratio (IC50 of standard peptide / IC50 of test peptide) [7]: 0.0029

B19: HPV16 E1 493 peptide … (peptide)
peptide: FLQGSVICFV
modifications: not checked
relative binding ratio (IC50 of standard peptide / IC50 of test peptide) [7]: 0.23

B20: HPV16 E1 477 peptide … (peptide)
peptide: GAANTGKSL
modifications: not checked
relative binding ratio (IC50 of standard peptide / IC50 of test peptide) [7]: 0.0003

B21: HPV16 E1 242 peptide … (peptide)
peptide: GLTPSIADSI
modifications: not checked
relative binding ratio (IC50 of standard peptide / IC50 of test peptide) [7]: 0.0002

B22: HPV16 E1 12 peptide … (peptide)
peptide: GTGCNGWFYV
modifications: not checked
relative binding ratio (IC50 of standard peptide / IC50 of test peptide) [7]: 0.0006

B23: HPV16 E1 238 peptide … (peptide)
peptide: IAAFGLTPSI
modifications: not checked
relative binding ratio (IC50 of standard peptide / IC50 of test peptide) [7]: 0.0002
